± gives the uncertainty stated by the source.
Assay: amyloid nucleation score (Sup35N fusion, yeast selection) (log enrichment); library NNK2; higher = more nucleation; inactive = no reads after selection
How it was run: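 Random libraries were run with three technical output replicates. In each, psi-negative yeast expressing Sup35N fused to peptides of 20 random codons were induced 24 hours with 100 μM copper sulfate and grown 7 days at 30°C on medium lacking adenine and uracil, and input and output plasmid inserts were Illumina-sequenced. The nucleation score is the DiMSum log enrichment of output over input reads, centred on the mode score of non-aggregating sequences, and sequences under 100 input reads were excluded.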

| Substance | amyloid nucleation score |
| --- | --- |
| AAELLLSSGLVRQHAARRQY | 0.695 ± 0.26 |
| AANWGNRGYMVCEHCVIDV | -0.054 ± 0.46 |
| ACCSCIIVFINFTSLFFYRF | -0.178 ± 1.1 |
| ACGPQPETLSGLMSRGLLRR | 0.619 ± 0.64 |
| ACNVILCVTNPTHNVIV | 9.254 ± 0.036 |
| ADGVSSWLTVLTFSHWRVK | 1 ± 0.31 |
| ADIAWSCRLESNCFPTLSMM | 0.255 ± 0.33 |
| ADLCHTGRGSMRPCETED | inactive |
| ADNVGS | 3.71 ± 0.058 |
| AERLRVISGWAAWYAIDTRF | 3.82 ± 0.11 |
| AEWISLQQFLSLQKEFWIKA | -0.596 ± 0.76 |
| AEYSSAKGFD | -0.794 ± 0.55 |
| AFCTVSSCFMSSSLPI | 5.3 ± 0.06 |
| AFCWTLWQYLGFS | 1.35 ± 0.16 |
| AFDGGIFFSLMSFMLVWMGS | -0.345 ± 0.56 |
| AFDTTPKC | 0.275 ± 0.32 |
| AFFKR | 0.182 ± 0.38 |
| AFHWMF | 0.544 ± 0.28 |
| AFNARWTEIDVPWRASPAHV | 0.657 ± 0.37 |
| AFNERAYYVGGLTADME | 0.753 ± 0.43 |
| AFNWIEVCEETSPGSTTEGS | 0.318 ± 0.39 |

| Substance | amyloid nucleation score |
| --- | --- |
| AFPKLRAGSSLLCA | 0.74 ± 0.29 |
| AFRMLITGPGNS | -1.07 ± 0.49 |
| AFRSSSPSRVHELRQMKELV | 1.14 ± 0.3 |
| AFYGL | inactive |
| AGDLKRLSSQQLM | 4.03 ± 0.051 |
| AGLLYVSRLNWSVSQRNGVG | 0.131 ± 1 |
| AGPSCL | 0.537 ± 0.22 |
| AGRLYNISNY | inactive |
| AGWNLFLEGVYVW | -0.387 ± 1.1 |
| AGWNNSMGLDE | inactive |
| AHNDVNGVFLMPVRSLDFKH | -1.17 ± 0.64 |
| AHYIASVDWIFKM | -1.32 ± 0.41 |
| AIAAHFGLMPMCYLCTG | 7.25 ± 0.079 |
| AIFDTIYC | -0.541 ± 1.1 |
| AILFSIFISVGRKWLFSASH | -1.78 ± 1.1 |
| AINWYYMHISMLECPAKNGS | -0.876 ± 0.76 |
| AIRCMEVKRTKSLLLVDSLS | 0.154 ± 0.23 |
| AIRLLDVLRCRG | 3.88 ± 0.087 |
| AISDGPET | 0.746 ± 0.43 |
| AISHQPLWLLCHVVHLFRNS | 0.279 ± 0.32 |
| AKRDMAKKYLSGYHGVLWYV | 0.077 ± 0.63 |

| Substance | amyloid nucleation score |
| --- | --- |
| AKVCLYIAICLSLVNS | 2.98 ± 0.065 |
| ALCKFRDFFVMYNTGWHTVQ | -0.935 ± 1.1 |
| ALENNIDPLGELASVPGCSG | 0.843 ± 0.27 |
| ALFFRTKTKHWVSCRFLMS | 2.86 ± 0.078 |
| ALFYLSCQPSTGALESRYLG | 1.73 ± 0.29 |
| ALGVPLYMIEGIGKCLLSLK | 1.24 ± 0.43 |
| ALLDHFPDEGHFKATFISSI | 0.85 ± 0.58 |
| ALLVILLDCLQFIYMTELNC | -0.032 ± 1.1 |
| ALLWCQMWERDRSEFPIGGF | 1.2 ± 0.45 |
| ALMTVASRKTLIPVGAKQMN | inactive |
| ALPKFSNNYLYEFLWFSRYL | -0.538 ± 0.76 |
| ALRDFS | 0.465 ± 0.8 |
| ALRLLSFKVMVVEDYLTMTL | 2.91 ± 0.098 |
| ALRTPCYSAMHLGAWVFVCF | 3.31 ± 0.14 |
| ALVLRATVVVGIVKPGHAAD | 0.523 ± 0.32 |
| ALVVLFTCGCSGMLVYNAWS | 0.841 ± 0.13 |
| AMLLANALIWNRICGDRRLA | 0.823 ± 0.4 |
| ANFGALHRAHESVECSLY | inactive |
| ANVWRSLFAFTIANVTIPR | 5.714 ± 0.045 |
| APRGASALGCVYSDCSVVSI | 0.058 ± 1 |
| APSGRHFFTFTPC | 0.605 ± 0.36 |

| Substance | amyloid nucleation score |
| --- | --- |
| AQAFLNGVGRLLVCTRTCRN | 0.895 ± 0.81 |
| AQDWVARIRWSVRQFYGARC | 2.18 ± 0.14 |
| AQVKKLDRARCRFQRVV | -1.4 ± 0.78 |
| ARLSWWGS | -0.184 ± 0.29 |
| ARNTTGGSYV | 0.504 ± 0.74 |
| ARPIKFYKKLYFSCMIELLR | -1.38 ± 0.54 |
| ARSRFSYKMRYPACGVISSR | -0.472 ± 0.79 |
| ARYMSQVRRTSSHTLNEKI | 0.545 ± 0.51 |
| ASCNKGPEKSGQLFLLSAFL | -0.641 ± 0.49 |
| ASFFDTVNCSWFSGIFVMGF | 1.59 ± 0.21 |
| ASGEDVNPSVCFHTTAMLYQ | 0.98 ± 0.66 |
| ASGNRTFVVMLLNRRKMMST | 0.008 ± 0.48 |
| ASLFFM | 0.707 ± 0.34 |
| ASLIRGATKGQTVCEMALSG | -0.07 ± 0.27 |
| ASMVSVSVDEFGGFLPSCVS | -0.55 ± 0.46 |
| ASQRTVA | 1.6 ± 0.36 |
| ASRPWMMYPHESARRSR | 1.6 ± 0.22 |
| ASSRFDDVINDRIRILVCAV | -0.102 ± 0.49 |
| ASSTNVYLIIIGLWSAAM | 2.46 ± 0.18 |
| ASSWGVNGRVNKISRTG | 1.32 ± 0.18 |
